Literature values in publication PMC9618554.

Biological target: insulin receptor site-2' (Homo sapiens) (UniProt P06213)

Sequence of insulin (P01308 90-110): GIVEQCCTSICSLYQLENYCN

With insulin (from UniProt P01308) as the substance, how does the Kd read?
The Kd was 400 nM.
